Data published in PMC9982067.

Molecular target: Lys38 (UniProt position 38, …)
Experiment: kinetics
Conditions: 19°C; 50 mM/50 mM TRIS/HEPES (pH 8.3-6.3), TRIS/MES (pH 6.6, 5.8), TRIS/citric acid (pH 5.3-2.8); Transporter in the native yeast plasma membrane, turning over with 1 mM L-lactate. The authors link the 7.43 inflection to Lys 38 in the substrate-unbound state.

B1: Monocarboxylate transporter 1 (MCT1) (Homo sapiens) (protein)
chain: MPPAVGGPVGYTPPDGGWGWAVVIGAFISIGFSYAFPKSITVFFKEIEGIFHATTSEVSWISSIMLAVMYGGGPISSILVNKYGSRIVMIVGGCLSGCGLIAASFCNTVQQLYVCIGVIGGLGLAFNLNPALTMIGKYFYKRRPLANGLAMAGSPVFLCTLAPLNQVFFGIFGWRGSFLILGGLLLNCCVAGALMRPIGPKPTKAGKDKSKASLEKAGKSGVKKDLHDANTDLIGRHPKQEKRSVFQTINQFLDLTLFTHRGFLLYLSGNVIMFFGLFAPLVFLSSYGKSQHYSSEKSAFLLSILAFVDMVARPSMGLVANTKPIRPRIQYFFAASVVANGVCHMLAPLSTTYVGFCVYAGFFGFAFGWLSSVLFETLMDLVGPQRFSSAVGLVTIVECCPVLLGPPLLGRLNDMYGDYKYTYWACGVVLIISGIYLFIGMGINYRLLAKEQKANEQKKESKEEETSIDVAGKPNEVTKAAESPDQKDTDGGPKEEESPV
  pKa: 7.43
